For data set [1], the target named is T1, HU-B (Escherichia coli, UniProt P0ACF4 1-90).
T1 sequence: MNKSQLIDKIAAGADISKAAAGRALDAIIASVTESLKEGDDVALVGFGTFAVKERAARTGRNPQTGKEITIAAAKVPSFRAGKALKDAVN
Briefly: condensate co-localization.

For data set [2], the target named is HU-A (Escherichia coli, UniProt P0ACF0 1-90). Briefly: EMSA. (In general: Mobility shift assays separate free from complexed probe on a gel.)
Data set [3] deals with T1, HU-B. Briefly: EMSA.

Sequence of HU-A (P0ACF0 whole entry): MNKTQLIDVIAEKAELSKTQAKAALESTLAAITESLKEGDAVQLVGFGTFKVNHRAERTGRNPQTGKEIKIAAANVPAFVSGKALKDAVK

B1: 20 bp dsDNA (dsDNA)
DNA 1: GTTCAATTGTTGTTAACTTG
DNA 2: CAAGTTAACAACAATTGAAC
For B1, the binding result in data set [1] is “binds”.

B2: 4WJ DNA (structured_DNA)
DNA 1: CCCTATAACCCCTGCATTGAATTCCAGTCTGATAA
DNA 2: GTAGTCGTGATAGGTGCAGGGGTTATAGGG
DNA 3: AACAGTAGCTCTTATTCGAGCTCGCGCCCTATCACGACTA
DNA 4: TTTATCAGACTGGAATTCAAGCGCGAGCTCGAATAAGAGCTACTGT
In the case of B2, the binding result in data set [2] and in data set [3] was “binds” in each case.

The record behind these values is article PMC10141540.
